These results are taken from paper PMC4032492, “Molecular mechanism of Aurora A kinase autophosphorylation and its allosteric activation by TPX2” (eLife, 2014).

Data set [1] concerns the target dephosphorylated Aurora A kinase 122-403 (human) (UniProt O14965). As to the kind of experiment: AUC; sedimentation velocity, 50,000 rpm, 18°C; 100-160 μM Aurora A + 500 μM AMPPCP, with or without 100 μM TPX2 1-25, kinase assay buffer; dimer to monomers.
Data set [2] has the same target. The data set is described as follows: AUC + other: SAXS; estimate from the concentration dependence of the dimer in AUC and SAXS; dimer to monomers.
For data set [3] the target is unchanged. As to the kind of experiment: SAXS; Aurora A 0.33-6.6 mg/ml with 1 mg/mL TPX2 1-25, 500 μM AMPPCP, kinase assay buffer, 20°C; curves fitted with monomer and dimer of the X-ray structures.
Data set [4] concerns the molecule itself. As to the kind of experiment: AUC; sedimentation velocity, 50,000 rpm, 18°C; 100-160 μM Aurora A + 500 μM AMPPCP, with or without 100 μM TPX2 1-25, kinase assay buffer; dimer to monomers.
Data set [5] addresses T1, phosphorylated Aurora A kinase 122-403 (human, UniProt O14965 122-403, heavily phosphorylated (multiple sites, by autophosphorylation and E. coli kinases during expression); T288 in the activation loop phosphorylated).
T1 chain: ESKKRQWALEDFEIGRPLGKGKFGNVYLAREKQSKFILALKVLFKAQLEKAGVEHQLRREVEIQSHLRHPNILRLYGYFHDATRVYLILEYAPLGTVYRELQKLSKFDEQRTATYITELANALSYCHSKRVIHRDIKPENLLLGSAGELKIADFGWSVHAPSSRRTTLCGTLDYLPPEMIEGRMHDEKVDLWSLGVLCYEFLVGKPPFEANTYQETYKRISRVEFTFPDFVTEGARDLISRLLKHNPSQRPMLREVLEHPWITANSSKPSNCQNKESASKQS
As to the kind of experiment: ITC; phosphorylated Aurora A.

Data set [6] has as its target T2, dephosphorylated Aurora A kinase 122-403 (human, UniProt O14965 122-403).
T2 chain: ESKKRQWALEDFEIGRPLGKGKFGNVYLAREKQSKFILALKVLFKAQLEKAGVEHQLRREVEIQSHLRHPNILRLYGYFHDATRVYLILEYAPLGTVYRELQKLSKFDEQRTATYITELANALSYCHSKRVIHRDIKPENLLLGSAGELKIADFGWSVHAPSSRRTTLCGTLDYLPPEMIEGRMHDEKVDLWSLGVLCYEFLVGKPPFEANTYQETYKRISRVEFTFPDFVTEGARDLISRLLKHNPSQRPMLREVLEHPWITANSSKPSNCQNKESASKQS
As to the kind of experiment: ITC. (In ITC the heat of successive injections is recorded.)

For data set [7], the target named is T3, dephosphorylated Aurora A kinase 122-403 (human, UniProt O14965 122-403).
T3 construct: Aurora A kinase, human, residues 122-403, codon-optimized, completely dephosphorylated (confirmed by MS); Monomer and dimer are both seen in solution; also called deP Aurora A; deP Aurora A^122−403
T3 sequence (looked up): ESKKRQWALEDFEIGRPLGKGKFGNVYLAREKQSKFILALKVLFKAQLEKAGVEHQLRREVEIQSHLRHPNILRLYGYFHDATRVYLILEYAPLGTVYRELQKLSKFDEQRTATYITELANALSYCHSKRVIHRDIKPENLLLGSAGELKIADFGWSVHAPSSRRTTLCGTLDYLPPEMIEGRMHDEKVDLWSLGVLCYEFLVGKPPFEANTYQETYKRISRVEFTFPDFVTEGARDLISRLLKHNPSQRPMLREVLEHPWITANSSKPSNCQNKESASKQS
The data set is described as follows: ITC; Nano ITC, 1 μl injections every 180 s, 25°C; 20 mM TrisHCl, 200 mM NaCl, 3% glycerol, 1 mM TCEP, pH 7.50; independent fit model; Aurora A 13-90 μM, TPX2 250-940 μM. The conditions noted are these: both partners purified.

Data set [8] addresses T4, Aurora A^122−403 T288V (human, UniProt O14965 122-403, T288V).
T4 sequence (looked up): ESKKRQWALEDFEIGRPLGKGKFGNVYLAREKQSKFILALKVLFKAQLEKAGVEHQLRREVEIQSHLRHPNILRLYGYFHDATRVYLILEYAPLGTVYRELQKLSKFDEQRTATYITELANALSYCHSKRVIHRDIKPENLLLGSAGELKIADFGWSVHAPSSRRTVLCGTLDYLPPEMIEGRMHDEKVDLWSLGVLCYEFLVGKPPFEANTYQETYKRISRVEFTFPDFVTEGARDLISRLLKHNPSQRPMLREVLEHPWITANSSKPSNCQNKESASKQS
As to the kind of experiment: cell-based or functional assay.

In general, stoichiometry N refers to a count of units in the complex or per binding partner. Broadly, the Kd is the constant that tells how readily two partners part at equilibrium.

With “dephosphorylated Aurora A kinase 122-403 (from UniProt O14965 122-403) (domain or fragment)”, the stoichiometry N in data set [1] was determined as 2. In addition, the Kd in data set [2] was greater than 300 µM. The same molecule had a percent dimer in data set [3] of 9%.

B1: Aurora A^125−392 D274A (domain or fragment, human, UniProt O14965 125-392, looked up)
chain: KRQWALEDFEIGRPLGKGKFGNVYLAREKQSKFILALKVLFKAQLEKAGVEHQLRREVEIQSHLRHPNILRLYGYFHDATRVYLILEYAPLGTVYRELQKLSKFDEQRTATYITELANALSYCHSKRVIHRDIKPENLLLGSAGELKIAAFGWSVHAPSSRRTTLCGTLDYLPPEMIEGRMHDEKVDLWSLGVLCYEFLVGKPPFEANTYQETYKRISRVEFTFPDFVTEGARDLISRLLKHNPSQRPMLREVLEHPWITANSSKPSN
notes: Aurora A kinase, human, residues 125-392, D274A; The purification of this mutant is not described on its own; also called kinase-dead Aurora A D274A; catalytically impaired D274A mutant; source: E. coli, purified (short 125-392 construct in pET28a)
Take B1: the “stoichiometry N” value in data set [4] is 2.

B2: TPX2^1−25 (peptide)
chain: MSQVKSSYSYDAPSDFINFSSLDDE
Consider B2, for which the values for the Kd in data set [5] and in data set [6] were 1800 nM and 2 µM, respectively.

B3: TPX2^1−147 (Targeting Protein for Xklp2, residues 1-147) (domain or fragment, UniProt Q9ULW0 1-147, looked up)
chain: MSQVKSSYSYDAPSDFINFSSLDDEGDTQNIDSWFEEKANLENKLLGKNGTGGLFQGKTPLRKANLQQAIVTPLKPVDNTYYKEAEKENLVEQSIPSNACSSLEVEAAISRKTPAQPQRRSLRLSAQKDLEQKEKHHVKMKAKRCAT
notes: TPX2 (Targeting Protein for Xklp2), residues 1-147; also called longer TPX2 variant
For the molecule B3, the Kd in data set [7] came out at 1100 ± 100 nM; in data set [5] it was 2900 nM. Moreover, the “KA from the dose-dependence of TPX2 1-147 on AP phosphorylation kinetics by 1 μM Aurora A T288V” value in data set [8] worked out at 1 µM.

B4: TPX2^1−45 (peptide)
chain: MSQVKSSYSYDAPSDFINFSSLDDEGDTQNIDSWFEEKANLENKL
Regarding B4, the Kd in data set [5] was found to be 2000 nM; in data set [6] it was 5 µM.
